Measured values taken from US9327008B2, “Cell-permeant peptide-based inhibitor of kinases” (Purdue Research Foundation, priority 2008, dated 2016).

Tests used:
Assay type in all cases: biochemical
CaMKI = target: T1, CaMKI (Homo sapiens, UniProt Q14012); assay: Millipore radiometric kinase activity assay, CaMKI (h); conditions: for CaMK1 Kinase Activity: peptide inhibitor 300 μM, SD of 2 samples
T1 construct: purchased Millipore (assay service)
Method: (§1) A commercial radiometric assay service (Millipore, Billerica, Mass.) was used to test the specificity and potency of peptides containing a coupled transduction domain and therapeutic domain, hereinafter “complete peptides”). In these assays, if the kinase is not inhibited by an inhibitor peptide, a positively charged substrate is phosphorylated with a radiolabeled phosphate group from an ATP.
(§2) In a final reaction volume of 25 μL, CaMKI (h) (5-10 mU) is incubated with 8 mM MOPS pH 7.0, 0.2 mM EDTA, 0.5 mM CaCl2, 16 μg/mL calmodulin, 250 μM […] [SEQ ID NO: 52], 10 mM MgAcetate and [γ-^33P-ATP] (specific activity approx. 500 cpm/pmol, concentration as required). The reaction is initiated by the addition of the MgATP mix. After incubation for 40 minutes at room temperature, the reaction is stopped by the addition of 5 μL of a 3% phosphoric acid solution. 10 μL of the reaction is then spotted onto a P30 filtermat and washed three times for 5 minutes in 75 mM phosphoric acid and once in methanol prior to drying and scintillation counting.
(§3) IC50 values for inhibitor peptides were determined using Millipore's IC50Profiler Express service. The IC50 value was estimated from a 10-point curve of one-half log dilutions. For peptides tested for specificity, the concentration of the peptides that inhibited approximately 95% of MK2 activity was chosen to profile against a battery of kinases related to MK2, cell viability, or human disease from MilliporeKinaseProfiler service. In both assays, compounds were supplied in dimethylsulfoxide (DMSO). Every kinase activity measurement was conducted in duplicate.
(§4) Therapeutic inhibitor peptides were assayed for activity against human kinases related to MK2, cell viability, or human disease. The assays were performed using concentrations of therapeutic inhibitor peptides that yielded 2% to 8% of normal MK2 activity. Error is reported as the standard deviation between 2 samples, and “c” is rat AMPK whereas all other kinases used are human kinases.
(§5) Additional therapeutic inhibitor peptide variants were assayed for activity against several human kinases representative of several families of kinases. These kinases included: MK2; MK3; CaMKI (calcium/calmodulin-dependent protein kinase); PRAK (p38 regulated/activated protein kinase, also known as mitogen-activated protein kinase activated protein kinase 5 (MAPKAPK5)); SAPK2a (p38α); IRAK4 (IL-1 receptor (IL-1R)-associated kinase); MLCK (myosin light chain kinase); PKBβ (protein kinase B); PCKδ (protein kinase C); and ROCK-I (Rho-associated serine/threonine kinase).

MLCK = target: T2, MLCK (Homo sapiens, UniProt Q9H1R3); assay: Millipore radiometric kinase activity assay, MLCK (h); conditions: for MLCK Kinase Activity: peptide inhibitor 300 μM, SD of 2 samples
T2 construct: purchased Millipore (radiometric assay service)
Method: as §1
as §2, with “MLCK” for “CaMKI”
as §3, §4, §5

PKBβ = target: T3, PKBβ (Homo sapiens, UniProt P31751); assay: Millipore radiometric kinase activity assay, PKBβ (h); conditions: for PKBβ Kinase Activity: peptide inhibitor 300 μM, SD of 2 samples
T3 construct: purchased Millipore (radiometric assay service)
Method: as §1
In a final reaction volume of 25 μL, […] (5-10 mU) is incubated with 8 mM MOPS pH 7.0, 0.2 mM EDTA, 30 μM […] [SEQ ID NO: 60], 10 mM MgAcetate and ['y-^33P-ATP] (specific activity approx. 500 cpm/pmol, concentration as required). The reaction is initiated by the addition of the MgATP mix. After incubation for 40 minutes at room temperature, the reaction is stopped by the addition of 5 μL it of a 3% phosphoric acid solution. 10 μL of the reaction is then spotted onto a P30 filtermat and washed three times for 5 minutes in 75 mM phosphoric acid and once in methanol prior to drying and scintillation counting.
as §3, §4, §5

PKCδ = target: T4, PKCδ (Homo sapiens, UniProt Q05655); assay: Millipore radiometric kinase activity assay, PKCδ (h); conditions: for PKCδ Kinase Activity: peptide inhibitor 300 μM, SD of 2 samples
T4 construct: purchased Millipore (radiometric assay service)
Method: as §1
as §2, with “PKCδ” for “CaMKI”, “20” for “8”, “HEPES” for “MOPS”, “7.4, 0.03% Triton X-100, 0.1 mg/mL phosphatidylserine, 10” for “7.0, 0.2 mM EDTA, 0.5 mM CaCl2, 16”, “diacylglycerol, 50” for “calmodulin, 250”, “61],” for “52],”
as §3, §4, §5

SAPK2a (p38α) = target: T5, SAPK2a (p38α) (Homo sapiens, UniProt Q16539); assay: Millipore radiometric kinase activity assay, SAPK2a (h); conditions: for SAPK2a (p38α) Kinase Activity: peptide inhibitor 300 μM, SD of 2 samples
T5 construct: purchased Millipore (radiometric assay service)
Method: as §1
In a final reaction volume of 25 μL, SAPK2a (h) (5-10 mU) is incubated with 25 mM Tris pH 7.5, 0.02 mM EGTA, 0.33 mg/mL myelin basic protein, 10 mM MgAcetate and [γ-^33P-ATP] (specific activity approx. 500 cpm/pmol, concentration as required). The reaction is initiated by the addition of the MgATP mix. After incubation for 40 minutes at room temperature, the reaction is stopped by the addition of 5 μL of a 3% phosphoric acid solution. 10 μL of the reaction is then spotted onto a P30 filtermat and washed three times for 5 minutes in 75 mM phosphoric acid and once in methanol prior to drying and scintillation counting.
as §3, §4, §5

MK2 = MK2 (Homo sapiens, UniProt P49137); assay: Millipore radiometric IC50 and kinase activity assay, MK2; set-up: purchased Millipore (assay service); conditions: for MK2 Kinase Activity: SD of 2 samples
Method: as §1, §3, §4, §5

[1] = peptide 30 μM, listed as WLRRIKAWLRRI-
[2] = peptide 100 μM, listed as KAFAKLAARLYRLARQLGVAA

T4 sequence (Q05655 whole entry): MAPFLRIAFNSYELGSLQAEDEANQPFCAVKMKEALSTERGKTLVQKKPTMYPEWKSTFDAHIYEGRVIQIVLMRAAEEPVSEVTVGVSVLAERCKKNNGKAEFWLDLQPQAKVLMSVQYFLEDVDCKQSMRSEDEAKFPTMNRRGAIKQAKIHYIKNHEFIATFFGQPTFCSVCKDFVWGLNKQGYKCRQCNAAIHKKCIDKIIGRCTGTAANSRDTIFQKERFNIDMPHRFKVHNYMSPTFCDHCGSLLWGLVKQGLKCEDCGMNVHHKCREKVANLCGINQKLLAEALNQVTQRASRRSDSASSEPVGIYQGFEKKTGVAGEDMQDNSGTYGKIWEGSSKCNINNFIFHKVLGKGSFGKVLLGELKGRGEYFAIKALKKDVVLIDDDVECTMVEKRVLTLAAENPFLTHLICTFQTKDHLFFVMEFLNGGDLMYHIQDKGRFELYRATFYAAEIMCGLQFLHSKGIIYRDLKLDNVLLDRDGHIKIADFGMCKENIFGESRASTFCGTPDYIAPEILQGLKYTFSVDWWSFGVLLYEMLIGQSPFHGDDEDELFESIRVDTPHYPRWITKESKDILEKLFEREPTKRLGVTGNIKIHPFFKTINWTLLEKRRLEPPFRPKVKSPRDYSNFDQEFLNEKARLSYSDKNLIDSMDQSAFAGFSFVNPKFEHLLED
T5 sequence (Q16539 whole entry): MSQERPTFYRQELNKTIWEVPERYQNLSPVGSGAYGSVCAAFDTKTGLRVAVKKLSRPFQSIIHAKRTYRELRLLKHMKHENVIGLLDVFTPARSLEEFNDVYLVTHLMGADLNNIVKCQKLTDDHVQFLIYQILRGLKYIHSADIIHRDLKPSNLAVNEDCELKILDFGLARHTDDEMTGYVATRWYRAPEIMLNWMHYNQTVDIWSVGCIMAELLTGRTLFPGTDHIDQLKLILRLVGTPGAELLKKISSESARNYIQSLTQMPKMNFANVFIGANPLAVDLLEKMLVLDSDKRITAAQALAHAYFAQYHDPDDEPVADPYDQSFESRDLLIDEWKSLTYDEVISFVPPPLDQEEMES
T3 sequence (P31751 whole entry): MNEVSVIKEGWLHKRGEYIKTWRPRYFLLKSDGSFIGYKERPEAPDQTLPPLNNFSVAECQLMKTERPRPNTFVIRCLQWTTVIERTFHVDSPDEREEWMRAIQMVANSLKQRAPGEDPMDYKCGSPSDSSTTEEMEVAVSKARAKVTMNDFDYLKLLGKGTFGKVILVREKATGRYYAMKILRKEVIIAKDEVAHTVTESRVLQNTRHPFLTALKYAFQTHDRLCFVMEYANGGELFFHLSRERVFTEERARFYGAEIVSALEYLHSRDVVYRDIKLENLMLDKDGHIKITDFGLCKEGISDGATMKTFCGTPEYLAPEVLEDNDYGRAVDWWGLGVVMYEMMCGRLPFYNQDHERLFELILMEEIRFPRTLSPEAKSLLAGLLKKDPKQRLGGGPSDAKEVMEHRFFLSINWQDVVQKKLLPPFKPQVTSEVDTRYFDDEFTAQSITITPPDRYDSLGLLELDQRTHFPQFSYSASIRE
Sequence of MK2 (P49137 whole entry): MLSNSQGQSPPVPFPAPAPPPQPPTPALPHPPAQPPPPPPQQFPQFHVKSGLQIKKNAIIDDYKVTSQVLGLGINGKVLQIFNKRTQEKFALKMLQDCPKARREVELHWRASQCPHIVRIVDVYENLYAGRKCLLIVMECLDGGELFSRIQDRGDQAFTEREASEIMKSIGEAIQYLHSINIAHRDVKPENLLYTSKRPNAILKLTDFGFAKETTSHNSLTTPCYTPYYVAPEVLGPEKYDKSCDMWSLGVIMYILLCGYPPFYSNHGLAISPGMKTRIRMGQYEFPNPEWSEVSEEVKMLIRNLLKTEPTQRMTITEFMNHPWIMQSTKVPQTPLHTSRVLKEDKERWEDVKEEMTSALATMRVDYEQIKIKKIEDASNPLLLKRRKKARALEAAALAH

Sequence	CaMK1 Kinase Activity (CaMKI)	MLCK Kinase Activity (MLCK)	PKBβ Kinase Activity (PKBβ)	PKCδ Kinase Activity (PKCδ)	SAPK2a (p38α) Kinase Activity (SAPK2a (p38α))	MK2 Kinase Activity (MK2; peptide inhibitor 300 μM)	CaMKI Kinase Activity (%) (+SD %) (CaMKI; peptide 100 μM)	MLCK Kinase Activity (%) (+SD %) (MLCK; peptide 100 μM)	PKBβ Kinase Activity (%) (+SD %) (PKBβ; peptide 100 μM)	PKCδ Kinase Activity (%) (+SD %) (PKCδ; peptide 100 μM)	SAPK2a Kinase Activity (%) (+SD %) (SAPK2a (p38α); peptide 100 μM)	MK2 Kinase Activity (MK2; peptide inhibitor 100 μM)	other results
YARAAARQARAKALARQLGVAA	2(0) %	9(0) %	17(2) %	101(3) %	66(3) %	−7(0) %	–	–	–	–	–	–	–
WLRRIKAWLRRIKALNRQLGVAA	–	–	–	–	–	–	0 (2) %	1 (1) %	16 (5) %	40 (2) %	30 (6) %	–	CaMKI Kinase Activity (%) (+SD %) (CaMKI; peptide 30 μM): 9(1) %; CaMKI Kinase Activity (%) (+SD %) (CaMKI; [1]): 9 (1) %; MLCK Kinase Activity (%) (+SD %) (MLCK; peptide 30 μM): 4(1) %; MLCK Kinase Activity (%) (+SD %) (MLCK; [1]): 4 (1) %; PKBβ Kinase Activity (%) (+SD %) (PKBβ; peptide 30 μM): 18(2) %; PKBβ Kinase Activity (%) (+SD %) (PKBβ; [1]): 18 (2) %; PKCδ Kinase Activity (%) (+SD %) (PKCδ; peptide 30 μM): 11(0) %; PKCδ Kinase Activity (%) (+SD %) (PKCδ; [1]): 11 (0) %; SAPK2a Kinase Activity (%) (+SD %) (SAPK2a (p38α); peptide 30 μM): 61(7) %; SAPK2a Kinase Activity (%) (+SD %) (SAPK2a (p38α); [1]): 61 (7) %; MK2 Kinase Activity (MK2; peptide inhibitor 30 μM): 2(1) %; fold lower IC50 than the therapeutic inhibitor peptide incorporating PTD YARAAARQARA (FIG. 2) (MK2; same therapeutic domain KALNRQLGVAA): greater than 30 fold
FAKLAARLYRKALARQLGVAA	–	–	–	–	–	–	0(2) %	1(1) %	16(5) %	40(2) %	30(6) %	5(2) %	inhibition of SAPK2a activity (in words) (SAPK2a (p38α); Table 5, 100 μM): inhibited activity of SAPK2a
KAFAKLAARLYRKALARQLGVAA	–	–	–	–	–	–	0 (2) %	2 (0) %	28 (4) %	24 (3) %	59 (8) %	8(1) %	CaMKI Kinase Activity (%) (+SD %) (CaMKI; [2]): 0(2) %; MLCK Kinase Activity (%) (+SD %) (MLCK; [2]): 2(0) %; PKBβ Kinase Activity (%) (+SD %) (PKBβ; [2]): 28(4) %; PKCδ Kinase Activity (%) (+SD %) (PKCδ; [2]): 24(3) %; SAPK2a Kinase Activity (%) (+SD %) (SAPK2a (p38α); [2]): 59(8) %
YARAAARQARAKALNRQLGVAA	8(1) %	66(9) %	96(1) %	105(2) %	100(6) %	10(3) %	–	–	–	–	–	–	–
